From publication PMC5637921, “An engineered photoswitchable mammalian pyruvate kinase” (The Febs Journal, 2017)

Target: the molecule itself
Assay: SEC; preparative SEC after Ni affinity; HiLoad 16/600 Superdex 200 pg, 0.5 mL/min, 50 mM Tris/HCl pH 7.5, 10 mM MgCl2, 200 mM NaCl, 150 mM KCl, 5% glycerol, 0.5 mM TCEP

B1: mPKM2 internal LOV2 fusion at position D24 (PiL[D24]) (enzyme)
chain: not shown
notes: mouse pyruvate kinase M2 isoform (mPKM2), residues 1-24, amplified from pLHCX-flag-mPKM2; N-terminal part up to Asp24; Avena sativa phototropin 1 (NPH1-1) LOV2 domain, residues 404-540, amplified from plasmid pDS257 (Mid2(SS/TM)-GFP-LOVpep); G528A and N538E of the template were backmutated to wild-type LOV2; numbers count on phototropin 1 (NPH1-1, GenBank AAC05083.1); mouse pyruvate kinase M2 …
  stoichiometry N: 4
